{"source": "patent US20220348688A1", "about": "(PROMAB BIOTECHNOLOGIES, published 2022)", "binders": {"B1": {"name": "PLAP h4-CD3e bispecific antibody (FIG. 1A structure) (bispecific antibody)", "light": "DIQMTQSPSSLSASVGDRVTITCRASENIYSYVAWYQQKPGKAPKLLIYNAKSLASGVPSRFSGSGSGTDFTLTISSLQPEDFATYYCQHHYVSPWTFGGGTKLEIKRTVAAPSVFIFPPSDEQLKSGTASVVCLLNNFYPREAKVQWKVDNALQSGNSQESVTEQDSKDSTYSLSSTLTLSKADYEKHKVYACEVTHQGLSSPVTKSFNRGEC", "chain": "QAVVTQEPSLTVSPGGTVTLTCGSSTGAVTTSNYANWVQEKPGQAFRGLIGGTNKRAPGTPARFSGSLLGGKAALTLSGAQPEDEAEYYCALWYSNLWVFGGGTKLTVLSSASTKGPSVFPLAPSSKSTSGGTAALGCLVKDYFPEPVTVSWNSGALTSGVHTFPAVLQSSGLYSLSSVVTVPSSSLGTQTYICNVNHKPSNTKVDKKVEPKSC", "heavy 1": "not shown", "heavy 2": "QVQLQESGPGLVKPSETLSLTCTVSGGSITSYGVSWIRQPPGKGLEWIGVIWEDGSTNYHSALISRVTISVDTSKNQFSLKLSSVTAADTAVYYCARPHYGSSYVGAMEYWGAGTTVTVSSTKGPSVFPLAPSSKSTSGGTAALGCLVKDYFPEPVTVSWNSGALTSGVHTFPAVLQSSGLYSLSSVVTVPSSSLGTQTYICNVNHKPSNTKVDKKVEPKSCDKTHTCPPCPAPEAAGGPSVFLFPPKPKDTLMISRTPEVTCVVVDVSHEDPEVKFNWYVDGVEVHNAKTKPREEQYNSTYRVVSVLTVLHQDWLNGKEYKCKVSNKALGAPIEKTISKAKGQPREPQVCTLPPSRDELTKNQVSLSCAVKGFYPSDIAVEWESNGQPENNYKTTPPVLDSDGSFFLVSKLTVDKSRWQQGNVFSCSVMHEALHNHYTQKSLSLSPGK", "notes": "Two PLAP Fab arms and one CD3e crossover Fab; knob-into-hole human IgG Fc with P329G, L234A, L235A; also called PLAP h4-CD3 antibody; PLAP h4-Cd3 antibody"}, "B2": {"name": "PLAP h4-CD3e bivalent antibody (PBM0015), FIG. 1B structure (bispecific antibody)", "light": "B1 light", "heavy 1": "not shown", "heavy 2": "B1 heavy 2", "notes": "Two PLAP Fab arms; the CD3 scFv is attached to the C-terminal end of CH3 of the knob chain; also called bivalent PLAP h4-CD3 Ab; bivalent humanized PLAPh4-CD3 antibody"}}, "key": {"[1]": {"molecular_target": "T1, CD3 epsilon chain (CD3e) (human, UniProt P07766 23-207)", "T1 construct": "whole, on cells; also called CD3 antigen", "T1 sequence (P07766 23-207)": "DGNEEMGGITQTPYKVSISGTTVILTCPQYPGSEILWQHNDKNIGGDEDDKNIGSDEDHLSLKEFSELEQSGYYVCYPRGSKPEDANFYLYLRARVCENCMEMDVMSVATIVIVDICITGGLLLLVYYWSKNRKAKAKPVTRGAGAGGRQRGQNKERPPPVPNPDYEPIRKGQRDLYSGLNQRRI", "assay": "FACS on CD3-positive T cells", "text": "The allophycocyanin (APC)-labeled anti-CD3 (eBioscience, San Diego, Calif.) antibody was used for FACS analysis using FACSCalibur (BD Biosciences).\nCD3-positive T cells were used for testing binding to CD3."}, "[2]": {"molecular_target": "T1, CD3 epsilon chain (CD3e)", "assay": "FACS"}}, "data": [{"binder": "B1", "values": [{"measurement": "binding result", "setting": "[1]", "value": "binds"}]}, {"binder": "B2", "values": [{"measurement": "binding result", "setting": "[2]", "value": "binds"}]}]}
